Values joined by “and” are separate entries in the source; they are usually repeats but may differ in a detail not shown here. Equal entries are not always repeated.
Key:
[1] = test system: T1, RPRAASF
T1 sequence: RPRAASF

[2] = test system: T2, RPRTSSFA
T2 sequence: RPRTSSFA

[3] = test system: T3, RPRVSSF
T3 sequence: RPRVSSF

[4] = test system: T4, RPRAGSF
T4 sequence: RPRAGSF

[5] = test system: T5, RPKTSSF
T5 sequence: RPKTSSF

[6] = test system: T6, RPRASSF
T6 sequence: RPRASSF

[7] = test system: T7, RPRTSTF
T7 sequence: RPRTSTF

[8] = test system: T8, Crosstide GRPRTSSFAEG
T8 sequence: GRPRTSSFAEG

[9] = test system: T9, RPRTVSF
T9 sequence: RPRTVSF

[10] = test system: T10, RPRTASF
T10 sequence: RPRTASF

[11] = test system: T11, RPRGASF
T11 sequence: RPRGASF

[12] = test system: T12, RPRTGSF
T12 sequence: RPRTGSF

[13] = test system: T13, GRPRTSSF
T13 sequence: GRPRTSSF

[14] = test system: T14, RPRTNSF
T14 sequence: RPRTNSF

[15] = test system: T15, RPRTSSV
T15 sequence: RPRTSSV

[16] = test system: T16, RPRTSSE
T16 sequence: RPRTSSE

[17] = test system: myelin basic protein (MBP)
[18] = test system: T17, KPRTSSF
T17 sequence: KPRTSSF

[19] = test system: T18, KKRNRTLSVA
T18 sequence: KKRNRTLSVA

[20] = test system: T19, RPRTSSK
T19 sequence: RPRTSSK

[21] = test system: T20, RPRTSSF
T20 sequence: RPRTSSF

[22] = test system: histone H2B
[23] = test system: T21, KKRNKTLSVA
T21 sequence: KKRNKTLSVA

[24] = test system: T22, RPRGGSF
T22 sequence: RPRGGSF

[25] = test system: T23, RPRTSSA
T23 sequence: RPRTSSA

[26] = test system: T24, RPRGSSF
T24 sequence: RPRGSSF

[27] = test system: T25, RPRNSSF
T25 sequence: RPRNSSF

[28] = test system: T26, RPRAATF
T26 sequence: RPRAATF

[29] = test system: T27, RPRTSS
T27 sequence: RPRTSS

[30] = test system: T28, KKKNRTLSVA
T28 sequence: KKKNRTLSVA

[31] = test system: T29, RPRTSSL
T29 sequence: RPRTSSL

[32] = test system: T30, GRARTSSFA
T30 sequence: GRARTSSFA

[33] = test system: T31, KKRNRTLTV
T31 sequence: KKRNRTLTV

Q: Which results are given for “HA-RAC-PKα immunoprecipitated from IGF-1 stimulated 293 cells”?
A: Km [1]: 25 µM; V (0.1 mM): relative rate of phosphorylation at 0.1 mM peptide (relative to peptide 1) [1]: 77; Vmax [1]: 215 U/mg; Km [2]: 8 µM; V (0.1 mM): relative rate of phosphorylation at 0.1 mM peptide (relative to peptide 1) [2]: 109; Vmax [2]: 305 U/mg; Km [3]: 25 µM; V (0.1 mM): relative rate of phosphorylation at 0.1 mM peptide (relative to peptide 1) [3]: 77; Vmax [3]: 273 U/mg; Km [4]: 49 µM; V (0.1 mM): relative rate of phosphorylation at 0.1 mM peptide (relative to peptide 1) [4]: 70; Vmax [4]: 114 U/mg; Km [5]: > 500 µM; V (0.1 mM): relative rate of phosphorylation at 0.1 mM peptide (relative to peptide 1) [5]: 2; Km [6]: 12 µM; V (0.1 mM): relative rate of phosphorylation at 0.1 mM peptide (relative to peptide 1) [6]: 89; Vmax [6]: 230 U/mg; Km [7]: 30 µM; V (0.1 mM): relative rate of phosphorylation at 0.1 mM peptide (relative to peptide 1) [7]: 78; Vmax [7]: 240 U/mg and 243 U/mg; Km [8]: 4 µM; V (0.1 mM): relative rate of phosphorylation at 0.1 mM peptide (relative to peptide 1) [8]: 100; Vmax [8]: 250 U/mg; Km [9]: 30 µM; V (0.1 mM): relative rate of phosphorylation at 0.1 mM peptide (relative to peptide 1) [9]: 89; Vmax [9]: 365 U/mg; Km [10]: 20 µM; V (0.1 mM): relative rate of phosphorylation at 0.1 mM peptide (relative to peptide 1) [10]: 83; Vmax [10]: 213 U/mg; Km [11]: 105 µM; V (0.1 mM): relative rate of phosphorylation at 0.1 mM peptide (relative to peptide 1) [11]: 37; Vmax [11]: 160 U/mg; Km [12]: 25 µM; V (0.1 mM): relative rate of phosphorylation at 0.1 mM peptide (relative to peptide 1) [12]: 77; Vmax [12]: 233 U/mg; Km [13]: 8 µM; V (0.1 mM): relative rate of phosphorylation at 0.1 mM peptide (relative to peptide 1) [13]: 129; Vmax [13]: 385 U/mg; Km [14]: 30 µM; V (0.1 mM): relative rate of phosphorylation at 0.1 mM peptide (relative to peptide 1) [14]: 81; Vmax [14]: 300 U/mg; Km [15]: 21 µM; V (0.1 mM): relative rate of phosphorylation at 0.1 mM peptide (relative to peptide 1) [15]: 102; Vmax [15]: 300 U/mg; Km [16]: > 500 µM; V (0.1 mM): relative rate of phosphorylation at 0.1 mM peptide (relative to peptide 1) [16]: 9; Km [17]: MBP with a Km of 5 µM and a Vmax of 25 U/mg; Vmax [17]: MBP with a Km of 5 µM and a Vmax of 25 U/mg; Km [18]: > 500 µM; V (0.1 mM): relative rate of phosphorylation at 0.1 mM peptide (relative to peptide 1) [18]: 4; Km [19]: 80 µM; Vmax [19]: 300 U/mg; Km [20]: 80 µM; V (0.1 mM): relative rate of phosphorylation at 0.1 mM peptide (relative to peptide 1) [20]: 67; Vmax [20]: 308 U/mg; Km [21]: 5 µM; V (0.1 mM): relative rate of phosphorylation at 0.1 mM peptide (relative to peptide 1) [21]: 105; Vmax [21]: 260 U/mg; Km [22]: histone H2B with a Km of 5 µM and a Vmax of 68 U/mg; Vmax [22]: histone H2B with a Km of 5 µM and a Vmax of 68 U/mg; Km [23]: > 500 µM; Km [24]: 105 µM; V (0.1 mM): relative rate of phosphorylation at 0.1 mM peptide (relative to peptide 1) [24]: 55; Vmax [24]: 345 U/mg; Km [25]: 250 µM; V (0.1 mM): relative rate of phosphorylation at 0.1 mM peptide (relative to peptide 1) [25]: 30; Vmax [25]: 265 U/mg; Km [26]: 60 µM; V (0.1 mM): relative rate of phosphorylation at 0.1 mM peptide (relative to peptide 1) [26]: 37; Vmax [26]: 163 U/mg; Km [27]: > 500 µM; V (0.1 mM): relative rate of phosphorylation at 0.1 mM peptide (relative to peptide 1) [27]: 21; Km [28]: 25 µM; Vmax [28]: 230 U/mg; Km [29]: > 500 µM; V (0.1 mM): relative rate of phosphorylation at 0.1 mM peptide (relative to peptide 1) [29]: 2; Km [30]: 185 µM; Vmax [30]: 270 U/mg; Km [31]: 8 µM; V (0.1 mM): relative rate of phosphorylation at 0.1 mM peptide (relative to peptide 1) [31]: 104; Vmax [31]: 278 U/mg; Km [32]: Km of 10 µM and Vmax of 230 U/mg; Vmax [32]: Km of 10 µM and Vmax of 230 U/mg; Km [33]: 388 µM; Vmax [33]: 330 U/mg

Q: What does the source list for “MAPKAP kinase-1 purified from rabbit skeletal muscle”?
A: Km [1]: 20 µM; Vmax [1]: 1020 U/mg; Km [7]: > 500 µM; Vmax [7]: > 500 U/mg; Km [8]: 2 µM; Vmax [8]: 790 U/mg; Km [21]: 12 µM; Vmax [21]: 840 U/mg; Km [28]: > 500 µM

Reference: patent publication US20110275102
